B1: Retinoic acid receptor alpha (Homo sapiens), P10276 (parent)
chain: MASNSSSCPTPGGGHLNGYPVPPYAFFFPPMLGGLSPPGALTTLQHQLPVSGYSTPSPATIETQSSSSEEIVPSPPSPPPLPRIYKPCFVCQDKSSGYHYGVSACEGCKGFFRRSIQKNMVYTCHRDKNCIINKVTRNRCQYCRLQKCFEVGMSKESVRNDRNKKKKEVPKPECSESYTLTPEVGELIEKVRKAHQETFPALCQLGKYTTNNSSEQRVSLDIDLWDKFSELSTKCIIKTVEFAKQLPGFTTLTIADQITLLKAACLDILILRICTRYTPEQDTMTFSDGLTLNRTQMHNAGFGPLTDLVFAFANQLLPLEMDDAETGLLSAICLICGDRQDLEQPDRVDMLQEPLLEALKVYVRKRRPSRPHMFPKMLMKITDLRSISAKGAERVITLKMEIPGSMPPLIQEMLENSEGLDTLSGQPGGGGRDGGGLAPPPGSCSPSLSPSSNRSSPATHSP
partner: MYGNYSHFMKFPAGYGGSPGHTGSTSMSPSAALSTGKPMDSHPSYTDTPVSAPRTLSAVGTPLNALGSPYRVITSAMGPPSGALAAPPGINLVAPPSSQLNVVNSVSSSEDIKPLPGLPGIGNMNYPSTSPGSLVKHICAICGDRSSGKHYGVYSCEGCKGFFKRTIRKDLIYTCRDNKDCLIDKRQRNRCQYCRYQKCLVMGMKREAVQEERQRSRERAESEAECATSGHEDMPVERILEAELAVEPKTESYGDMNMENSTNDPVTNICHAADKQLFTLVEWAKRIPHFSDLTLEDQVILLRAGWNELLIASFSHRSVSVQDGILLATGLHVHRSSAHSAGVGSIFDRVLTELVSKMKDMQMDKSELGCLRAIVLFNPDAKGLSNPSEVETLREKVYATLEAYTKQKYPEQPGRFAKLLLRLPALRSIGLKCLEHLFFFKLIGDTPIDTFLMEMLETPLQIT
B2: Ribosome assembly protein METTL17, mitochondrial (Homo sapiens), Q9H7H0 (parent)
chain: MAAALKCLLTLGRWCPGLGVAPQARALAALVPGVTQVDNKSGFLQKRPHRQHPGILKLPHVRLPQALANGAQLLLLGSAGPTMENQVQTLTSYLWSRHLPVEPEELQRRARHLEKKFLENPDLSQTEEKLRGAVLHALRKTTYHWQELSYTEGLSLVYMAARLDGGFAAVSRAFHEIRARNPAFQPQTLMDFGSGTGSVTWAAHSIWGQSLREYMCVDRSAAMLVLAEKLLKGGSESGEPYIPGVFFRQFLPVSPKVQFDVVVSAFSLSELPSKADRTEVVQTLWRKTGHFLVLVENGTKAGHSLLMDARDLVLKGKEKSPLDPRPGFVFAPCPHELPCPQLTNLACSFSQAYHPIPFSWNKKPKEEKFSMVILARGSPEEAHRWPRITQPVLKRPRHVHCHLCCPDGHMQHAVLTARRHGRDLYRCARVSSWGDLLPVLTPSAFPPSTAQDPSES
partner: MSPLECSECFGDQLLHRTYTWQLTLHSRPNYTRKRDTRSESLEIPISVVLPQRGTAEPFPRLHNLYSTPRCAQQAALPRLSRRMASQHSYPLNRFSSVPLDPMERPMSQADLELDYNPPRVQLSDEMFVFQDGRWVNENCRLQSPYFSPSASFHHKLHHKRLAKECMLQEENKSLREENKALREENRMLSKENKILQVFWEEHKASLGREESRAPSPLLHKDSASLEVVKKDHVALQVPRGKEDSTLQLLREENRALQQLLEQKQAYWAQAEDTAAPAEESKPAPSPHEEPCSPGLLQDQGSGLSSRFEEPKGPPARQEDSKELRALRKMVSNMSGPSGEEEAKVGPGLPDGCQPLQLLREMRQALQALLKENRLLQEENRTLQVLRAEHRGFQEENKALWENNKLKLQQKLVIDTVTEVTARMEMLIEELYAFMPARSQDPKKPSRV
B3: Ribosome assembly protein METTL17, mitochondrial (Homo sapiens), Q9H7H0 (parent)
chain: B2 chain
partner: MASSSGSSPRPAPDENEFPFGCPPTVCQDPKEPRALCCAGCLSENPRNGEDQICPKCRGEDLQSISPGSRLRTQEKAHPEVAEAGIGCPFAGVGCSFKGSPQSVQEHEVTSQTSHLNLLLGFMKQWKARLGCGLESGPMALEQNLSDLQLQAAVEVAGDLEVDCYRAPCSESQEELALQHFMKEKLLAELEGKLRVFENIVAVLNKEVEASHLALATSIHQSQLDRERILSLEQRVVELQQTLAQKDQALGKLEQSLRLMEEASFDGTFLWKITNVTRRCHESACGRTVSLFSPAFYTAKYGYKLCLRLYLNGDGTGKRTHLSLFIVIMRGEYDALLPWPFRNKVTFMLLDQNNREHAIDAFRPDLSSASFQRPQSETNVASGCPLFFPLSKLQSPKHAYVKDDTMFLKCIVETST
B4: Cysteine/serine-rich nuclear protein 2 (Homo sapiens), Q9H175 (parent)
chain: MDAFTGSGLKRKFDDVDVGSSVSNSDDEISSSDSADSCDSLNPPTTASFTPTSILKRQKQLRRKNVRFDQVTVYYFARRQGFTSVPSQGGSSLGMAQRHNSVRSYTLCEFAQEQEVNHREILREHLKEEKLHAKKMKLTKNGTVESVEADGLTLDDVSDEDIDVENVEVDDYFFLQPLPTKRRRALLRASGVHRIDAEEKQELRAIRLSREECGCDCRLYCDPEACACSQAGIKCQVDRMSFPCGCSRDGCGNMAGRIEFNPIRVRTHYLHTIMKLELESKRQVSRPAAPDEEPSPTASCSLTGAQGSETQDFQEFIAENETAVMHLQSAEELERLKAEEDSSGSSASLDSSIESLGVCILEEPLAVPEELCPGLTAPILIQAQLPPGSSVLCFTENSDHPTASTVNSPSYLNSGPLVYYQVEQRPVLGVKGEPGTEEGSASFPKEKDLNVFSLPVTSLVACSSTDPAALCKSEVGKTPTLEALLPEDCNPEEPENEDFHPSWSPSSLPFRTDNEEGCGMVKTSQQNEDRPPEDSSLELPLAV
B5: Ligand of Numb protein X 2 (Homo sapiens), Q8N448 (parent)
chain: MGTTSDEMVSVEQTSSSSLNPLCFECGQQHWTRENHLYNYQNEVDDDLVCHICLQPLLQPLDTPCGHTFCYKCLRNFLQEKDFCPLDRKRLHFKLCKKSSILVHKLLDKLLVLCPFSSVCKDVMQRCDLEAHLKNRCPGASHRRVALERRKTSRTQAEIENENGPTLLDPAGTLSPEADCLGTGAVPVERHLTSASLSTWSEEPGLDNPAFEESAGADTTQQPLSLPEGEITTIEIHRSNPYIQLGISIVGGNETPLINIVIQEVYRDGVIARDGRLLAGDQILQVNNYNISNVSHNYARAVLSQPCNTLHLTVLRERRFGNRAHNHSDSNSPREEIFQVALHKRDSGEQLGIKLVRRTDEPGVFILDLLEGGLAAQDGRLSSNDRVLAINGHDLKYGTPELAAQIIQASGERVNLTIARPGKPQPGNTIREAGNHSSSSQHHTPPPYYSRPSSHKDLTQCVTCQEKHITVKKEPHESLGMTVAGGRGSKSGELPIFVTSVPPHGCLARDGRIKRGDVLLNINGIDLTNLSHSEAVAMLKASAASPAVALKALEVQIVEEATQNAEEQPSTFSENEYDASWSPSWVMWLGLPSTLHSCHDIVLRRSYLGSWGFSIVGGYEENHTNQPFFIKTIVLGTPAYYDGRLKCGDMIVAVNGLSTVGMSHSALVPMLKEQRNKVTLTVICWPGSLV
partner: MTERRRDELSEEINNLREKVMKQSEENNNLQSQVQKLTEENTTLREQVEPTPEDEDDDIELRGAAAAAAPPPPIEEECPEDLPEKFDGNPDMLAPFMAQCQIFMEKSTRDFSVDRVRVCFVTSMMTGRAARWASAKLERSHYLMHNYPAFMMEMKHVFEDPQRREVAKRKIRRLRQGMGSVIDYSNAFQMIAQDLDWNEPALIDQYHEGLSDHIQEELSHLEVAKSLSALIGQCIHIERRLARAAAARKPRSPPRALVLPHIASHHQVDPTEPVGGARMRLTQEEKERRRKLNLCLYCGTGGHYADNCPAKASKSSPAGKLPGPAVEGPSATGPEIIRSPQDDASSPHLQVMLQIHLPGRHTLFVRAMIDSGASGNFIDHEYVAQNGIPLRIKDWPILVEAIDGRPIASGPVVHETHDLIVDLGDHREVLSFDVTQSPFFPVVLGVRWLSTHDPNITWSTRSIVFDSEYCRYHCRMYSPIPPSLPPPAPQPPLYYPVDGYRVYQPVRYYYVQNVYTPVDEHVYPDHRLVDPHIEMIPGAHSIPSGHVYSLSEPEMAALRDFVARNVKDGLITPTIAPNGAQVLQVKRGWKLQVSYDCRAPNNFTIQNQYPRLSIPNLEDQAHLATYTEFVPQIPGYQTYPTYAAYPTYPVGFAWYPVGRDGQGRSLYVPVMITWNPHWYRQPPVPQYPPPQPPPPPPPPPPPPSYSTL

Variants of: B1
Settings: with rxrg_human RXRG

| Variant | effect of a mutation on the interaction |
| --- | --- |
| R83H | with no effect |

Variants of: B1
Settings: with rxrg_human RXRG
Remark: another data set of the same source

| Variant | effect of a mutation on the interaction |
| --- | --- |
| P375L | disrupting interaction strength |

Variants of: B2
Settings: with cby2_human CBY2, Q8NA61

| Variant | effect of a mutation on the interaction |
| --- | --- |
| R212H | with no effect |

Variants of: B3
Settings: with traf1_human TRAF1, Q13077

| Variant | effect of a mutation on the interaction |
| --- | --- |
| R212H | with no effect |

Variants of: B4
Settings: with pp1g_human PPP1CC

| Variant | effect of a mutation on the interaction |
| --- | --- |
| Q382E | with no effect |

Variants of: B5
Settings: with peg10_human PEG10, Q86TG7

| Variant | effect of a mutation on the interaction |
| --- | --- |
| P669A | with no effect |
